{"source": "patent US5258292A", "about": "“Enzymic process for the synthesis of ammonium adipate” (Rhone-Poulenc Chimie, priority 1990, dated 1993)", "molecules": {"B1": {"name": "enantioselective amidase of a Rhodococcus: enzyme purified to homogeneity from a Rhodococcus; sequence in FIG. 14 (protein)", "chain": "GLHELTLAQVAAKIENKELSPVELLDVILARVAEIEPKISAFVTITADSARKAARLAADEIAGGHYRGPLHGVPIGLKDLFEVAGVPNTASSRVRADYIPSSDGAAVEKLTAGGAVMIGKTHTHEFAYGAITPTTRNPWDPTRTPGGSSGGTAAALAAGLIFAGMGTDTGGSIRIPAAVCGTVGLKPTYGRVSRRGVTSLSWSLDHAGPLARTVEDAAIMLNQIAGYDRADPATVDVPVPDYAAALTGDVRGLRIGVPTNFYTDNVHPEVAAAADAAVAQLAHLGAVVREVKIPMAEVIVPTEWSLLVPEASAYHQQMLRERADHYTDETRTFLEAGELVPATDYIKALRVRTLIQAAFRELFQDIDVLIAPTVSSPALPLDDLEVTWPDGTSEGGTITYVRLSAPGNVTGLPALSVPSGFTEQGLPTGIQIIGRPFDEETVLNVGHAYEGCTDWPRLAPL"}, "B2": {"name": "enantioselective amidase of Brevibacterium R 312: enzyme purified from Brevibacterium R 312, purity of more than 80%; sequence in FIG. 9 (protein)", "chain": "MATIRPDDKAIDAAARHYGITLDKTARLEWPALIDGALGSYDVVDQLYADEATPPTTSAEHAVPSASENPLSAWYVTTSIPPTSDGVLTGRRVAIKDNVTVAGVPMMNGSRTVEGFTPSRDATVVTRLLAAGATVAGKAVCEDLCFSGSSFTPASGPVRNPWDRQREAGGSSGGSAALVANGDVDFAIGGDQGGSIRIPAAFCGVVGHKPTFGLVPYTGAFPIERTIDHLGPITRTVHDAALMLSVIAGRDGNDPRQADSVEAGDYLSTLDSDVDGLRIGIVREGFGHAVSQPEVDDAVRAAAHSLTEIGCTVEEVNIPWHLHAFHIWNVIATDGGAYQMLDGNGYGMNAEGLYDPELMAHFASRRIQHADALSETVKLVALTGHHGITTLGGASYGKARNLVPLARAAYDTALRQFDVLVMPTLPYVASELPAKDVDRATFITKALGMIANTAPFDVTGHPSLSVPAGLVNGLPVGMMITGRHFDDATVLRVGRAFEKLRGAFPTPAERASNSAPQLSPA"}}, "key": {"enantioselective amidase": {"molecular_target": "T1, enantioselective amidase (Rhodococcus erythropolis, UniProt P22984)", "T1 sequence (P22984 2-521)": "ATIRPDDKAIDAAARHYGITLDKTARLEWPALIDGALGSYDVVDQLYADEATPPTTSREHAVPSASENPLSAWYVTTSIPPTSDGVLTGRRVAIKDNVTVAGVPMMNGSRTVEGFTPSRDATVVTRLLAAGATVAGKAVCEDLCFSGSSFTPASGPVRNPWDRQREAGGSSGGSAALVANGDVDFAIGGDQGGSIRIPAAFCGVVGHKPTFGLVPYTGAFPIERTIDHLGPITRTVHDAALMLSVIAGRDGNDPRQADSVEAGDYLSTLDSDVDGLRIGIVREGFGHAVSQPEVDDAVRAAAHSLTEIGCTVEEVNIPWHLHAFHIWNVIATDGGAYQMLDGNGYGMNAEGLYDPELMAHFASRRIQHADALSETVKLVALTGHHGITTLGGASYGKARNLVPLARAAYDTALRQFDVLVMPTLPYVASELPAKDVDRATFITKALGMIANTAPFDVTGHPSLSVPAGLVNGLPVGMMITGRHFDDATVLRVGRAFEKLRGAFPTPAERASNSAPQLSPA", "assay": "Substrate preference of the enantioselective amidase", "assay_type": "biochemical, Brevibacterium R 312", "details": "compared with the 2-arylpropionamide derivatives, especially 2-phenylpropionamide and 2-(3-benzoylphenyl)propionamide", "text": "Furthermore, the selectivity of the amidase towards the R enantiomer of HPPAmide is representative of the selectivity towards the S enantiomer of the 2-arylpropionamide derivatives."}, "[1]": {"assay": "Assay of the enzymic activity: hydrolysis of 2-phenylpropionamide (HPLC)", "assay_type": "biochemical", "details": "enzyme purified to homogeneity; 1 unit = 1 μmol of 2-phenylpropionamide hydrolyzed per h; 30° C., pH 7.5", "experimental": "The fraction containing the activity is incubated for 30 min at 30° C. in 500 μl of 0.1 M Tris/HCl buffer, pH 7.5, containing 5 mM DTT and 18.1 mM 2-phenylpropionamide. After incubation, 2 ml of an acetonitrile/1 N HCl mixture (90/10) and then 2 ml of a 50 mM H3 PO4 /CH3 CN mixture (75/25) are added to the incubation mixture. After centrifugation at 5000 g for 10 min, an aliquot of the supernatant is injected into an HPLC apparatus for assay of the reaction products.\nColumn: Nucleosil 5-C18 25 cm\nOne activity unit is defined as the amount of enzyme required to hydrolyze 1 μmol of 2-phenylpropionamide per h."}, "[2]": {"assay": "Enantioselective amidase activity with HPPAmide as substrate (HPLC)", "assay_type": "biochemical", "details": "purified enzyme, purity of more than 80%; 1 U = 1 μmol of HPPAcid formed per hour", "experimental": "b--one unit (U) is equivalent to 1 μmol of HPPAcid formed per hour under the conditions described below.\nConsequently, the enantioselective enzymic activity was detected by using 2-(4-hydroxyphenoxy)propionamide (HPPAmide) as the substrate. The reaction is carried out at 25° C., with shaking, in a 50 mM sodium phosphate buffer, pH 7.0, in the presence of Brevibacterium R 312, and is stopped by the addition of a 55/40/5 (v/v) mixture of 0.05 M phosphoric acid, acetonitrile and 1 N HCl. The culture is then centrifuged and the supernatant is analyzed by reversed-phase HPLC (Hibar-Merck RP-18; 5 μm). Elution is effected with an 85/15 (v/v) solution of 0.005 M phosphoric acid and acetonitrile and the respective concentrations of HPPAmide and HPPAcid are measured by the position of the elution peaks and compared with a standard. The enantiomeric excess, defined as the ratio (R-S)/(R+S) x 100, in which R and S are the respective concentrations of the R and S enantiomers of the HPPAcid, is deduced either from polarimetric measurements (using the sodium absorption at 589 nm) or from HPLC analysis on a chiral column."}}, "data": [{"molecule": "CC(Oc1ccc(O)cc1)C(N)=O", "note": "(racemic) [R,S-2-(4-Hydroxyphenoxy)propionamide]", "values": [{"measurement": "substrate quality for the enantioselective amidase", "setting": "enantioselective amidase", "result": "better substrate"}]}, {"molecule": "B1", "values": [{"measurement": "specific activity", "setting": "[1]", "result": "988 U/mg of protein"}]}, {"molecule": "B2", "values": [{"measurement": "specific activity", "setting": "[2]", "result": 815, "unit": "U/mg"}]}]}
